Bounds are passed on as bounds.

Experiment [1] concerns the target T1, SARS-CoV2 Spike ecto foldon Trimer expressed with a C-terminal myc-myc-hexahistidine (SARS-CoV-2, UniProt P0DTC2 14-1213).
T1 construct: extracellular domain
The experiment in a line: SPR Biacore, mAb captured by anti-hFc, 25C.

Experiment [2] concerns the target T1, SARS-CoV2 Spike ecto foldon Trimer …. The experiment in a line: SPR Biacore, mAb captured by anti-hFc, 37C. (SPR reads the build-up and loss of mass on a sensor chip optically.)
Experiment [3] deals with T2, SARS-COV-2 RBD extracellular domain expressed with a C-terminal mouse IgG2a Fc (SARS-CoV-2). The experiment in a line: Biacore SPR, mAb captured on anti-hFc, 37 C.
Experiment [4] addresses T2, SARS-COV-2 RBD extracellular domain …. The experiment in a line: Biacore SPR, mAb captured on anti-hFc, 25 C.

B1: mAb14312 (antibody, V domains shown)
VH: EVQLVESGGGLVQPGGSLRLSCAASGFTVSRSYMTWVRQAPGKGLEWVSVIFTGGRTDHADSVKGRFTISRHNSKNTLYLQMNSLRTEDTAVYYCARVAIVGATGAFDIWGQGTMVTVSS
VL: QSVLTQPPSVSGAPGQRVTISCTGSSSNIGAGDDVHWYQQLPGTAPKLLIYGNSNRPSGVPDRFSGSKSGTSASLAITGLQAEDEADYYCQSYDSSLSGSVVFGGGTKLTVLG
Turning to B1, in experiment [1], the Kd (as a rule, a measure of binding affinity in units of concentration) came to 0.0272 nM; the koff (in general, the rate constant with which the complex falls apart) worked out at 5.24e-05 s⁻¹; the kon (usually a measure of how fast the partners come together) is 1.93e+06 M⁻¹ s⁻¹; the t½ – broadly, the time needed for the level to fall by half in the phase considered – is 3.67 h. In experiment [2], this molecule came in with a Kd of 0.0563 nM, a koff of 5.44e-05 s⁻¹, an on-rate (kon) of 966000 M⁻¹ s⁻¹ and a t½ of 3.54 h.

B2: mAb15163 (antibody, V domains shown)
VH: EVQLVETGGGLIQPGESLRLSCAASGFIVSTNYMNWVRQAPGKGLEWVSVIYRGGSTYYADSVKGRFTISRDNSKNTLFLQMNSLRAEDTAVYYCARGHEDFDYDTPASGAFDIWGQGTMVTVSS
VL: QSALTQPPSASGSPGQSVTISCTGTSSDVGGHNYVSWYQQHPGKAPKVMIYEVSKRPSGVPDRFSGSKSGNTASLTVSGLQAEDEADYYCSSYAGSNKFVFGTGTKVTVLG
In experiment [1], B2 displayed a Kd of 0.0562 nM, a koff of 1.15e-05 s⁻¹, a kon of 214000 M⁻¹ s⁻¹ and a t½ of 16.7 h. Moreover, in experiment [2], the Kd was found to be 0.0364 nM, the koff was 4.85e-05 s⁻¹, the kon came out at 1.35e+06 M⁻¹ s⁻¹ and the t½ worked out at 3.97 h.

B3: mAb15150 (antibody, V domains shown)
VH: EVQLVETGGGLIQPGGSLRLSCAAPGFIVSSNYMSWVRQAPGKGLEWVSLLYPGGSTYYADSVKGRFTISRDNSKNTLYLQMNSLRADDTAVYYCARVLPIVEDHFDYWGQGTLVTVSS
VL: DIQLTQSPSFLSASVGDRVTITCRASQGMSSYLAWYQKKPGKAPKLLIYGATILQSGVPSRFSGSGSGTEFTLTISSLQPEDFATYYCQQLNSDPLYMYTFGQGTKLEIKR
In experiment [1], B3 returned a Kd not above 0.0315 nM, a koff not above 1e-05 s⁻¹, a kon of 317000 M⁻¹ s⁻¹ and a t½ of 19.2 h. In experiment [2], this molecule registered a Kd of 0.0202 nM, a koff of 3.42e-05 s⁻¹, an on-rate constant (kon) of 1.68e+06 M⁻¹ s⁻¹ and a t½ of 5.63 h.

B4: mAb15150 (antibody, V domains shown)
VH: EVQLVETGGGLIQPGGSLRLSCAAPGFIVSSNYMSWVRQAPGKGLEWVSLLYPGGSTYYADSVKGRFTISRDNSKNTLYLQMNSLRADDTAVYYCARVLPIVEDHFDYWGQGTLVTVSS
VL: DIQLTQSPSFLSASVGDRVTITCRASQGMSSYLAWYQKKPGKAPKLLIYGATILQSGVPSRFSGSGSGTEFTLTISSLQPEDFATYYCQQLNSDPLYMYTFGQGTKLEIKR
For the molecule B4, in experiment [3], the affinity, expressed as Kd, was 0.0296 nM; the off-rate constant (koff) came to 2.8e-05 s⁻¹; the kon is 946000 M⁻¹ s⁻¹; the t½ worked out at 6.88 h.

B5: mAb14258 (antibody, V domains shown)
VH: QLQLQESGPGLVKPSETLSLICTGSGDSISSSHYYWGWIRQPPGKGLEWIGSTYFSGSTYYNPSLKSRVSISVDTSKNQVSLKLISVTAADTAVYYCAREMGATLGDYWGPGTLVTVSS
VL: QSVLTQPPSASGTPGQRVTISCSGSSSNIGNNYVYWYQQFPGTTPRLLIYRNNERPSGVPDRFSGSKSGTSASLVISGLRSEDEADYYCAAWDDSLSAHYVFGTGTKVTVLG
In experiment [4], B5 gave a dissociation constant (Kd) of 3.04 nM, a koff of 0.000109 s⁻¹, a kon of 35600 M⁻¹ s⁻¹ and a t½ of 1.77 h.

B6: mAb15151 (antibody, V domains shown)
VH: QVQLVESGGGVVQPGRSLRLSCAASGFVFNSYGMHWVRQAPGKGLEWVAVLWYEGSKNYYADSVKGRFTISRDNSKNTLYLQMNSLRAEDTAVYYCARHGSGSFFGYYLDYWGQGTLVTVSS
VL: DIQMTQSPSSLSASVGDRVTITCRASHNINDFLNWYQQKPGKAPRLLIYAASSLQSGVPSRFSGSGSGTDFTLTISSLQPEDFATYYCQESYTTPPTFGQGTKLEIKR
Consider B6, for which, in experiment [1], binding was put at a Kd of 0.187 nM, the koff was determined as 6.26e-05 s⁻¹, the association rate constant (kon) is 335000 M⁻¹ s⁻¹ and the t½ turned out to be 3.08 h. In experiment [2], this molecule showed a Kd of 0.129 nM, a koff of 0.000248 s⁻¹, a kon of 1.92e+06 M⁻¹ s⁻¹ and a t½ of 0.777 h.

B7: mAb15161 (antibody, V domains shown)
VH: EVQLVESGGGLVQPGGSLRLSCAASGFTFSSYEMNWVRQAPGKGLEWVSYISSSGSILYYADSVKGRFTASRDNAKNSLYLQMNSLRAEDTGVYYCARREYQLLRPFEFWGQGTLVTVSS
VL: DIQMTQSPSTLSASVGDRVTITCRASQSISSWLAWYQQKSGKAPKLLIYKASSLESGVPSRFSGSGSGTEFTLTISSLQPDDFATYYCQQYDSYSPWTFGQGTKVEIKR
In the case of B7, in experiment [1], the Kd is 0.049 nM, the koff stood at 1.38e-05 s⁻¹, the association rate constant (kon) was determined as 280000 M⁻¹ s⁻¹ and the t½ is 14 h. In experiment [2], the affinity, expressed as Kd, was 0.0616 nM; the off-rate (koff) worked out at 9.14e-05 s⁻¹; the kon came to 1.48e+06 M⁻¹ s⁻¹; the t½ stood at 2.11 h.

B8: mAb14284 (antibody, V domains shown)
VH: QITLKESGPTLVKPTQTLTLTCTFSGFSFSTSGVGVGWIRQPPGKTLEWLALIYWDDDKRYSPSLKSRLTITKDTSKNQVVLTMTNMDPVDTATYFCAHHGIPTIFGYWGQGALVTVSS
VL: QSALTQPASVSGSPGQSITISCTGTSSDLGVFNYVSWYQQHPGKAPKLMIYEVTNRPSGVSNRFSGSKSGNTASLTISGLQAEDEADYYCSSYTTSSTVFGGGTKLTVLG
For the molecule B8, in experiment [1], the Kd was 0.0161 nM, the koff stood at 1.31e-05 s⁻¹, the kon amounted to 812000 M⁻¹ s⁻¹ and the t½ stood at 14.7 h. In experiment [2], this molecule displayed a Kd of 0.0251 nM, a koff of 2.05e-05 s⁻¹, an on-rate (kon) of 814000 M⁻¹ s⁻¹ and a t½ of 9.41 h.

B9: mAb15162 (antibody, V domains shown)
VH: EVQLVETGGGLIQPGGSLRLSCAASEFIVSRNYMSWVRQAPGKGLEWVSLIYSGGSTYYADSVKGRFTISRDNSKNILYLQMNSLRAEDTAVYYCARDRGGISDYWGQGTLVTVSS
VL: DIQMTQSPSSLSASVGDRVTITCQASQDINKYLNWFQQKPGKAPKLLIYDASNLETGVPSRFSGSGSGTDFTFTISSLQPEDIATYYCQQYDNLPRTFGQGTKLEIKR
In experiment [1], B9 came in with a Kd of 0.648 nM, a koff of 6.79e-05 s⁻¹, a kon of 105000 M⁻¹ s⁻¹ and a t½ of 2.83 h. In experiment [2], this molecule yielded a Kd of 0.425 nM, a koff of 0.000187 s⁻¹, a kon of 440000 M⁻¹ s⁻¹ and a t½ of 1.03 h.

B10: mAb15164 (antibody, V domains shown)
VH: EVQLVESGGGLVQPGGSLRLSCAASGFAVSSNYMTWVRQAPGKGLEWVATIYSGDSTYYADSVKGRFTISRHNSKNTLSLQMNSLRADDTAIYYCARLSGVLSGTYNGAFDIWGQGTMVTVSS
VL: QSALTQPASVSGSPGQSITISCTGTSSDFGNYNIVSWYQQHPGQAPKVMIYEGNKRPSGVSNRFSGSKSGHTASLTISGLQAEDEADYYCSSYAGSSTWVFGGGTKLTVLG
In experiment [1], B10 registered a Kd of 0.0865 nM, a koff of 2.58e-05 s⁻¹, a kon of 298000 M⁻¹ s⁻¹ and a t½ of 7.47 h. In experiment [2], this molecule returned a Kd of 0.0777 nM, a koff of 0.000138 s⁻¹, an on-rate constant (kon) of 1.78e+06 M⁻¹ s⁻¹ and a t½ of 1.4 h.

B11: mAb15166 (antibody, V domains shown)
VH: EVQLVESGGGLVQPGGSLRLSCAASGFTVTSNYMSWVRQAPGKGLEWVSAIYSGESTYYADSVKGRFTISRDSSKNTLYLQMNSLRVEDTAVYYCASIHDYSNYVGGFDPWGQGTLVTVSS
VL: QSALTQPASVSGSPGQSITISCTGPSSDFGSYNLVSWYQQHPGKAPKLMIYEGTKRPSGVSNRFSGSKSGNTASLTISGLQAEDEADYYCSSYAGSSTWVFGGGTKLTVLG
Take B11: in experiment [1], binding was characterised by a dissociation constant (Kd) of 0.63 nM, the koff amounted to 0.000174 s⁻¹, the association rate constant (kon) worked out at 276000 M⁻¹ s⁻¹ and the t½ is 1.1 h. Moreover, in experiment [2], the Kd stood at 0.054 nM, the koff was 8.32e-05 s⁻¹, the kon amounted to 1.54e+06 M⁻¹ s⁻¹ and the t½ worked out at 2.31 h.

B12: mAb15165 (antibody, V domains shown)
VH: EVQLVESGGGLVQPGGSLRLSCAASGFTVSSNYMSWVRQAPGKGLEWVSAIYSGDSTYYADSVKGRFTISKDNSKNTLYLQMNSLRGEDTAVYYCARLGGALQAYDGAFDYWGQGTLATVSS
VL: QSALTQPASVSGSPGQSITISCTGTSSDFGSYNLVSWYQQHPGKAPKLMIYEGNKRPSGVSIRFSGSKSGNTASLTISGLQAEDEADYYCSSYAGSSTWVFGGGTKLTVLG
For the molecule B12, in experiment [1], binding was put at a Kd of 0.0279 nM, the koff is 1.09e-05 s⁻¹, the kon was determined as 391000 M⁻¹ s⁻¹ and the t½ is 17.6 h. In experiment [2], this molecule showed a Kd of 0.0542 nM, a koff of 0.000115 s⁻¹, a kon of 2.12e+06 M⁻¹ s⁻¹ and a t½ of 1.67 h.

B13: mAb15170 (antibody, V domains shown)
VH: EVQLVESGGGLVQPGGSLRLSCAATGITVSSNYMSWVRQAPGKGLEWVSLIYSGGSTFYADSVKGRFTISRHNSKNTLYLQMSSLRAEDTAVYYCARDLVDFGMDVWGQGTTVTVSS
VL: DIQLTQSPSSLSASVGDRVTITCRASQGISNYLAWYQQKPGKAPKLLIYAASTLQSGVPSRFSGSGSGTDFTLTISSLQPEDFGTYYCQQLNSDSPTFGQGTKVEIKR
With B13, in experiment [1], the dissociation constant (Kd) is 0.11 nM, the koff came to 1.29e-05 s⁻¹, the kon turned out to be 120000 M⁻¹ s⁻¹ and the t½ was 14.9 h. In experiment [2], this molecule returned a Kd of 0.0118 nM, a koff of 1e-05 s⁻¹, a kon of 846000 M⁻¹ s⁻¹ and a t½ of 19.2 h.

B14: mAb13459 (antibody, V domains shown)
VH: EVQLVESGGGLVQPGRSLRLSCAASGFTFDDYAMHWVRQAPGKGLEWVSGISWNSGSIGYADSVKGRFTISRDNAKNSLYLQMNSLRAEDTALYYCAKDIGITTPYWGQGTLVTVSS
VL: AIQMTQSPSSLSASVGDRVTITCRASQDIRNDLGWYQQKPGKAPKLLIYSASSLQTGVPSRFSGSGSGTDFTLTISSLHPEDFATYYCLQDYNYVWTFGQGTKVEIKR
Consider B14, for which, in experiment [3], the affinity, expressed as Kd, was 0.0939 nM; the koff turned out to be 9.24e-05 s⁻¹; the kon was determined as 985000 M⁻¹ s⁻¹; the t½ was 2.08 h.

The record behind these values is patent publication US20260069689A1 (Regeneron, published 2026).
